Results on 4 substances are retold here after patent US20190002945A1.

The assay deals with deglycosylated rituximab (Fucα1,6GlcNAc-rituximab). The assay can be described thus: cell-based or functional assay.

As for “Endo-S D233A mutant (Streptococcus pyogenes Endoglycosidase-S Asp-233-Ala) (from UniProt Q99Y92 37-995) (enzyme)”, the KM (µM), transglycosylation kinetics for the deglycosylated rituximab is greater than 200 µM.

Consider “Endo-S2 D184A mutant (D184A mutant of wild type Endo-S2) (from UniProt T1WGN1 37-843) (enzyme)”, for which the KM (µM), transglycosylation kinetics for the deglycosylated rituximab is greater than 680 µM and the KM relative to Endo-S2 D184M is greater than 20 fold.

“Endo-S2 D184M mutant (D184M mutant of wild type Endo-S2) (from UniProt T1WGN1 37-843) (enzyme)”: the KM (µM), transglycosylation kinetics for the deglycosylated rituximab came out at 32.6 µM.

On to “Endo-S D233M mutant (Streptococcus pyogenes Endoglycosidase-S Asp-233-Met) (from UniProt Q99Y92 37-995) (enzyme)”, for which the KM (µM), transglycosylation kinetics for the deglycosylated rituximab turned out to be 30.2 µM.
